Reference: PMC3713477
pKd: −log10 of the molar value.

System: 3E10 lupus anti-DNA autoantibody (mouse)
Assay: EMSA
Details: 0-10 uM 3E10, 30 min at 4 C, buffer, salt and pH not given (ref 28)

Substance | pKd
duplex DNA with internal bubble (heterology) | 6.40
blunt-end duplex DNA | 6.40
duplex DNA with 5' single-stranded tail | 6.70
duplex DNA with 3' single-stranded tail | 6.70
single-stranded DNA | 6.70
duplex DNA with splayed single-stranded ends | 6.70
